Measured values: PMC3960972 (The Biochemical journal, 2013)

What was measured:
SaFosB = SaFosB (Staphylococcus aureus, UniProt Q5HDM4); test: HPLC-based enzyme inhibition kinetics, purified enzyme; type: biochemical
N[C@@H](CS)C(=O)O = test: HPLC-based steady-state kinetics; type: biochemical, Staphylococcus aureus; settings: […] Mn2+; fosfomycin ([…])

SaFosB, sequence (Q5HDM4 whole entry): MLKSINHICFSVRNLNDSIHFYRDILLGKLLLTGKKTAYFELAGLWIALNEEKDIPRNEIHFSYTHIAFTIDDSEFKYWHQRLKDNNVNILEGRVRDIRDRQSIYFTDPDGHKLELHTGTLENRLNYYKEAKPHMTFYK

Compound | Ki (SaFosB) [mM] | Km (N[C@@H](CS)C(=O)O) [mM] | kcat (N[C@@H](CS)C(=O)O) [s⁻¹] | kcat/Km (N[C@@H](CS)C(=O)O) [M⁻¹ s⁻¹]
N[C@@H](CO)C(=O)N[C@H]1[C@@H](O[C@@H](CC(=O)O)C(=O)O)O[C@H](CO)[C@@H](O)[C@@H]1O [BOH] | 3.9 | – | – | –
SaFosB (Staphylococcus aureus subsp. aureus COL) | – | 13 | 2.3 ± 0.2 | 175 ± 44
